From US6429014B1, “Monoterpene synthases from grand fir (Abies grandis)” (Washington State University Research Foundation, priority 1997, dated 2002)

Assay: Terpene synthase assay and GC-MS / chiral GC product identification of recombinant enzymes expressed from pSBET in E. coli BL21(DE3) (Example 11)
Assay type: biochemical
Details: extracts of induced cells
Experimental: For functional expression, bacterial strains E. coli BL21(DE3)/pSAG2(M), E. coli BL21(DE3)/pSAG2(R), E. coli BL21(DE3)/pSAG3(R), E. coli BL21(DE3)/pSAG6(M), E. coli BL21(DE3/pSAG6(R), E. coli BL21(DE3)/pSAG8(M), E. coli BL21(DE3)/pSAG9(M), E. coli BL21(DE3)/pSAG11(M) and E. coli BL21(DE3)/SAG11(R) were grown to A600=0.5 at 37° C. in 5 ml of Luria-Bertani medium (Sambrook, J., Fritsch, E. F., and Maniatis, T. (1989) Molecular Cloning: A Laboratory Manual, 2nd Ed., pp. 7.20-7.43, Cold Spring Harbor, N.Y.) supplemented with 30 μg kanamycin/ml. Cultures were then induced by addition of 1 mM isopropyl-1-thio-β-D-galactopyranoside and grown for another 12 h at 20° C. Cells were harvested by centrifugation and disrupted by sonication followed by centrifugation, and the resulting soluble enzyme preparations were assayed for monoterpene, sesquiterpene and diterpene synthase activity using the appropriate radiolabeled substrate as described previously (Bohlmann, J., Steele, C. L., and Croteau, R. (1997) J. Biol. Chem. 272, 21784-21792). This assay involves the isolation and separation of terpene olefins and oxygenated terpenes by column chromatography on silica, followed by scintillation counting to determine conversion rate. GC-MS analysis is employed for product identification, by comparison of retention times and mass spectra to those of authentic standards (Bohlmann, J., Steele, C. L., and Croteau, R. (1997) J. Biol Chem. 272, 21784-21792); assignment of absolute configuration is based upon chiral column capillary GC and matching of retention time to that of the corresponding enantiomer (Lewinsohn, E., Savage, T. J., Gijzen, M., and Croteau, R. (1993) Phytochem. Anal. 4, 220-225). To insure production of sufficient material for identification, the standard assay (Bohlmann, J., Steele, C. L., and Croteau, R. (1997) J. Biol. Chem. 272, 21784-21792) was scaled up by a factor of 20.
Initially, the four pSBET plasmids pSAG6(M), pSAG8(M), pSAG9(M) and pSAG11(M), containing the full-length cDNA inserts of ag6 (SEQ ID NO:64), ag8 (SEQ ID NO:66), ag9 (SEQ ID NO:77) and ag11 (SEQ ID NO:68), respectively, were expressed in E. coli BL21(DE3). Extracts of the induced, transformed bacterial cells were assayed for monoterpene, sesquiterpene and diterpene synthase activity using the corresponding labeled C10, C15 and C20 prenyl diphosphate substrates (Bohlmann, J., Steele, C. L., and Croteau, R. (1997) J. Biol. Chem. 272, 21784-21792). […] Since it is known that the relatively large amino-terminal transit peptide of plant terpene synthases can impair expression of the functional preprotein in E. coli and promote the formation of intractable inclusion bodies (Williams, D. C., McGarvey, D. J., Katahira, E. J., and Croteau, R. (1998) Biochemisiry 37, 12213-12220), the“pseudomature” forms of ag6 (SEQ ID NO:64) and ag11 (SEQ ID NO:68) were prepared by truncation of the cDNAs to insert a starting methionine immediately upstream of their tandem arginine elements (R59R 60 for ag6 (SEQ ID NO:64), R^71R^72 for ag11 (SEQ ID NO:68)) for expression in E. coli BL21(DE3)/pSAG6(R) and E. coli BL21(DE3)/pSAG11(R). Similar truncations of previously characterized ag2.2 (SEQ ID NO:1) (myrcene synthase, R^64R^65) and ag3.18 (SEQ ID NO:3) ((−)-pinene synthase, (SEQ ID NO:5) R^64R^65) (Bohlmann, J., Steele, C. L., and Croteau, R. (1997) J. Biol. Chem. 272, 21784-21792) were prepared for expression from pSBET as controls for the possible alteration of product yield and distribution resulting from truncation.
Monoterpenes generated at preparative scale from geranyl diphosphate by the recombinant enzymes encoded by ag6 (SEQ ID NO:64), ag8 (SEQ ID NO:66), ag9 (SEQ ID NO:77) and ag11 (SEQ ID NO:68) were analyzed by GC-MS and chiral phase (β-cyclodextrin) capillary GC, and identified by comparison of retention times and mass spectra to authentic standards (FIGS. 6-9). […] The enzyme encoded by ag6 (SEQ ID NO:65) is therefore designated as (−)-1S,4R-camphene synthase. […]

B1: AG3.18: recombinant (−)-pinene synthase from Grand fir encoded by cDNA clone AG3.18 (SEQ ID NO:3; protein SEQ ID NO:4) (protein, listed as Abies grandis)
chain: MALVSTAPLASKSCLHKSLISSTHELKALSRTIPALGMSRRGKSITPSISMSSTTVVTDDGVRRRMGDFHSNLWDDDVIQSLPTAYEEKSYLERAEKLIGEVKNMFNSMSLEDGELMSPLNDLIQRLWIVDSLERLGIHRHFKDEIKSALDYVYSYWGENGIGCGRESVVTDLNSTALGLRTLRLHGYPVSSDVFKAFKGQNGQFSCSENIQTDEEIRGVLNLFRASLIAFPGEKIMDEAEIFSTKYLKEALQKIPVSSLSREIGDVLEYGWHTYLPRLEARNYIQVFGQDTENTKSYVKSKKLLELAKLEFNIFQSLQKRELESLVRWWKESGFPEMTFCRHRHVEYYTLASCIAFEPQHSGFRLGFAKTCHLITVLDDMYDTFGTVDELELFTATMKRWDPSSIDCLPEYMKGVYIAVYDTVNEMAREAEEAQGRDTLTYAREAWEAYIDSYMQEARWIATGYLPSFDEYYENGKVSCGHRISALQPILTMDIPFPDHILKEVDFPSKLNDLACAILRLRGDTRCYKADRARGEEASSISCYMKDNPGVSEEDALDHINAMISDVIKGLNWELLKPDINVPISAKKHAFDIARAFHYGYKYRDGYSVANVETKSLVTRTLLESVPL
  terpene synthase activity on expression from pSBET in E. coli BL21(DE3): high level expression of activity
